From patent US20140186327

What was measured:
[1] = molecular target: T1, soluble tissue factor (sTF), P13726
T1 chain: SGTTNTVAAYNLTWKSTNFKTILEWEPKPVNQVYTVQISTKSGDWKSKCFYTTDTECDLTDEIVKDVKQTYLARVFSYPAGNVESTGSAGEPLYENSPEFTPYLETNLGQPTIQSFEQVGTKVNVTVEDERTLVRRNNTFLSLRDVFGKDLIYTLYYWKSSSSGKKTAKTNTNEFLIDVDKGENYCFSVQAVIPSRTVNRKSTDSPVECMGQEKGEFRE

Molecule: FXa from Novagen
- conversion of FVII-XTEN to FVIIa-XTEN (reducing SDS-PAGE) (FVII-XTEN_AE288): Reducing SDS-PAGE indicated a complete conversion of FVII-XTEN proteins to FVIIa-XTEN proteins
- conversion of FVII-XTEN to FVIIa-XTEN (reducing SDS-PAGE) (FVII-XTEN_AE864): Reducing SDS-PAGE indicated a complete conversion of FVII-XTEN proteins to FVIIa-XTEN proteins

Molecule: FXI protease
- Concentration by Activity (ng/ml), aPTT based factor assay (FIX-/FXI/-XTEN_AE864): 11 ng/mL
- Fraction Active (activity / ELISA) (FIX-/FXI/-XTEN_AE864): 40%
- fold enhancement of clotting activity against FIX-XTEN (aPTT based factor assay) (FIX-/FXI/-XTEN_AE864): In all three cases the presence of a FXI cleavage site enhanced the clotting activity by greater than 30-fold
- Concentration by Activity (ng/ml), aPTT based factor assay (FIX-DFTRVVG-XTEN_AE864): 9 ng/mL
- Fraction Active (activity / ELISA) (FIX-DFTRVVG-XTEN_AE864): 34%
- fold enhancement of clotting activity against FIX-XTEN (aPTT based factor assay) (FIX-DFTRVVG-XTEN_AE864): In all three cases the presence of a FXI cleavage site enhanced the clotting activity by greater than 30-fold
- Concentration by Activity (ng/ml), aPTT based factor assay (FIX-KLTRAET-XTEN_AE864): 7 ng/mL
- Fraction Active (activity / ELISA) (FIX-KLTRAET-XTEN_AE864): 30%
- fold enhancement of clotting activity against FIX-XTEN (aPTT based factor assay) (FIX-KLTRAET-XTEN_AE864): In all three cases the presence of a FXI cleavage site enhanced the clotting activity by greater than 30-fold

B1: FVIIa-AE288 (protein)
chain: AVFVTQEEAHGVLHRRRRANAFLEELRPGSLERECKEEQCSFEEAREIFKDAERTKLFWISYSDGDQCASSPCQNGGSCKDQLQSYICFCLPAFEGRNCETHKDDQLICVNENGGCEQYCSDHTGTKRSCRCHEGYSLLADGVSCTPTVEYPCGKIPILEKRNASKPQGRIVGGKVCPKGECPWQVLLLVNGAQLCGGTLINTIWVVSAAHCFDKIKNWRNLIAVLGEHDLSEHDGDEQSRRVAQVIIPSTYVPGTTNHDIALLRLHQPVVLTDHVVPLCLPERTFSERTLAFVRFSLVSGWGQLLDRGATALELMVLNVPRLMTQDCLQQSRKVGDSPNITEYMFCAGYSDGSKDSCKGDSGGPHATHYRGTWYLTGIVSWGQGCATVGHFGVYTRVSQYIEWLQKLMRSEPRPGVLLRAPFPGSPGTSESATPESGPGSEPATSGSETPGTSESATPESGPGSEPATSGSETPGTSESATPESGPGTSTEPSEGSAPGSPAGSPTSTEEGTSESATPESGPGSEPATSGSETPGTSESATPESGPGSPAGSPTSTEEGSPAGSPTSTEEGTSTEPSEGSAPGTSESATPESGPGTSESATPESGPGTSESATPESGPGSEPATSGSETPGSEPATSGSETPGSPAGSPTSTEEGTSTEPSEGSAPGTSTEPSEGSAPGSEPATSGSETPGTSESATPESGPGTSTEPSEGSAPGSSS
- soluble tissue factor (sTF) induced clotting (Stago STA-Clot FVIIa activity assay) [1]: an activity equivalent to 112 U/ml of FVIIa activity
